Data as given in publication PMC2709577.
Like-named read-outs stand apart in the source and are kept apart here.

Columns and labels:
Assay in all cases: nanopore rupture with qPCR
[1] = molecular target: T1, EcoRI restriction endonuclease (UniProt P00642 1-277)
[2] = molecular target: T1, EcoRI restriction endonuclease; remark: listed apart in the source
[3] = molecular target: T1, EcoRI restriction endonuclease; remark: listed apart in the source

T1 sequence (P00642 whole entry): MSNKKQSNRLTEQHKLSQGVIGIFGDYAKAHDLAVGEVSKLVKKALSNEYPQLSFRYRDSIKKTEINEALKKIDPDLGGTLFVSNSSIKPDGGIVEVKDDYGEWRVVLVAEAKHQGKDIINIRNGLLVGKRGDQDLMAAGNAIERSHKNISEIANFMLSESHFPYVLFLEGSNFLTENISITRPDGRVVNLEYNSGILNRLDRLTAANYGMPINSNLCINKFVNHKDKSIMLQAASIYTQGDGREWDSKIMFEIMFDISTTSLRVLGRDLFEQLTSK

Row | Binder | binding signal [1] | binding signal [2] | binding signal [3]
1 | 105 bp cognate TGAATTC (dsDNA) DNA 1: TAAGTTGGGTAACGCCAGGGTTTTCCCAGTCACGACGTTGTAAAACGACGGCCAGTGAATTCGAGCTCGGTACCCGGGGATCCTCTAGAGTCGACCTGCAGGCAT DNA 2: ATGCCTGCAGGTCGACTCTAGAGGATCCCCGGGTACCGAGCTCGAATTCACTGGCCGTCGTTTTACAACGTCGTGACTGGGAAAACCCTGGCGTTACCCAACTTA | 2.08 ± 0.03 V (threshold voltage) | 2.09 ± 0.06 V (threshold voltage) | 2.16 ± 0.08 V (threshold voltage)
2 | 105 bp AGAATTC (5' flank T to A) (dsDNA) DNA 1: TAAGTTGGGTAACGCCAGGGTTTTCCCAGTCACGACGTTGTAAAACGACGGCCAGAGAATTCGAGCTCGGTACCCGGGGATCCTCTAGAGTCGACCTGCAGGCAT DNA 2: ATGCCTGCAGGTCGACTCTAGAGGATCCCCGGGTACCGAGCTCGAATTCTCTGGCCGTCGTTTTACAACGTCGTGACTGGGAAAACCCTGGCGTTACCCAACTTA | 1.72 ± 0.05 V (threshold voltage) | 1.84 ± 0.05 V (threshold voltage) | 1.62 ± 0.07 V (threshold voltage)
3 | 105 bp TGCATTC (second base A to C) (dsDNA) DNA 1: TAAGTTGGGTAACGCCAGGGTTTTCCCAGTCACGACGTTGTAAAACGACGGCCAGTGCATTCGAGCTCGGTACCCGGGGATCCTCTAGAGTCGACCTGCAGGCAT DNA 2: ATGCCTGCAGGTCGACTCTAGAGGATCCCCGGGTACCGAGCTCGAATGCACTGGCCGTCGTTTTACAACGTCGTGACTGGGAAAACCCTGGCGTTACCCAACTTA | 0.93 ± 0.05 V (threshold voltage) | 0.93 ± 0.06 V (threshold voltage) | 0.87 ± 0.06 V (threshold voltage)
4 | 105 bp TTAATTC (first base G to T) (dsDNA) DNA 1: TAAGTTGGGTAACGCCAGGGTTTTCCCAGTCACGACGTTGTAAAACGACGGCCAGTTAATTCGAGCTCGGTACCCGGGGATCCTCTAGAGTCGACCTGCAGGCAT DNA 2: ATGCCTGCAGGTCGACTCTAGAGGATCCCCGGGTACCGAGCTCGAATTAACTGGCCGTCGTTTTACAACGTCGTGACTGGGAAAACCCTGGCGTTACCCAACTTA | 1.18 ± 0.06 V (threshold voltage) | 1.16 ± 0.03 V (threshold voltage) | 1.17 ± 0.09 V (threshold voltage)
5 | 105 bp TGACTTC (third base A to C) (dsDNA) DNA 1: TAAGTTGGGTAACGCCAGGGTTTTCCCAGTCACGACGTTGTAAAACGACGGCCAGTGACTTCGAGCTCGGTACCCGGGGATCCTCTAGAGTCGACCTGCAGGCAT DNA 2: ATGCCTGCAGGTCGACTCTAGAGGATCCCCGGGTACCGAGCTCGAAGTCACTGGCCGTCGTTTTACAACGTCGTGACTGGGAAAACCCTGGCGTTACCCAACTTA | 1.08 ± 0.04 V (threshold voltage) | 1.02 ± 0.08 V (threshold voltage) | 1.11 ± 0.08 V (threshold voltage)
